In publication doi:10.1101/2022.08.14.503891 (bioRxiv, 2022):
Several values for one entry are separate records, joined by “and”; a condition that tells them apart may be missing. Identical values can stand only once. Blank lines part the entries; values can stand above or below the molecule they belong to.

How the values were obtained:
mɑAXL (mouse) = assay: SPR
[1] = biological target: human Quiescin Sulfhydryl Oxidase 1 (residues 34–546 of HsQSOX1) (human, UniProt O00391); assay: enzyme inhibition
[2] = biological target: biotinylated lysozyme (GeneTex) (Gallus gallus (hen egg white), UniProt P00698, biotin); assay: flow cytometry on cells
[3] = biological target: hen-egg white lysozyme (Sigma) (Gallus gallus (hen egg white), UniProt P00698); assay: SPR
Sequence of hen-egg white lysozyme (Sigma) (P00698 19-147): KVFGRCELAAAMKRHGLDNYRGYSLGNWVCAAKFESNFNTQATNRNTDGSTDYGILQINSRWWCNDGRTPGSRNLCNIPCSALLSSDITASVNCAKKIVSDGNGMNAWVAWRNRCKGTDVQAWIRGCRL

Sequence of human Quiescin Sulfhydryl Oxidase 1 (residues 34–546 of HsQSOX1) (O00391 34-546): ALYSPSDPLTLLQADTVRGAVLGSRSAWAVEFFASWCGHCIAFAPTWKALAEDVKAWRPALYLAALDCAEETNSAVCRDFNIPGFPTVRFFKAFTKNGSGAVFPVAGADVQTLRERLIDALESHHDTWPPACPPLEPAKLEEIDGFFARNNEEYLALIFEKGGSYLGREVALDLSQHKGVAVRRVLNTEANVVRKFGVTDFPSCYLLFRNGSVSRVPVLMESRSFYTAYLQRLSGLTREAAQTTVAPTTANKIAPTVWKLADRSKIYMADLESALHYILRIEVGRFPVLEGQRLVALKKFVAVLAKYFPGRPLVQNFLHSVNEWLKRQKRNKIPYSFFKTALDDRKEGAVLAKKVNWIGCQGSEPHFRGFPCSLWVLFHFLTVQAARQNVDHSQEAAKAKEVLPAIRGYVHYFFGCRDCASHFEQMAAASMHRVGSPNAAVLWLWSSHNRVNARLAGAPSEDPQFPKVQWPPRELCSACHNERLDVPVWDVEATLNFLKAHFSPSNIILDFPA
Sequence of biotinylated lysozyme (GeneTex) (P00698 19-147): as the sequence (P00698 19-147) above

Kd (mɑAXL (mouse)): 0.95 nM
koff (mɑAXL (mouse)): 0.000524 s⁻¹
kon (mɑAXL (mouse)): 550000 M⁻¹ s⁻¹
Molecule: AXL (R&D systems) (from UniProt P30530) (receptor)

binding result [1]: binds
B1: murine monoclonal antibody mAb492.1 (antibody, V domains shown)
VH: QVQLKQSGPGLVAPSQSLSITCTVSGFSLTGYGVNWVRQSPGKGLEWLGMIWGDGRTDYKSALKSRLSITKDNSKSQVFLKMNSLQTDDTARYFCASDYYGSGSFAYWGQGTLVTVSA
VL: DVVMTQSHKFMSTSVGDRVSITCKASQDVSTAVAWYQQKSGQSPKLLIHSASYRYTGVPDRFTGSGSGTDFTFTISSVQAEDLAVYYCQQHYSIPLTFGAGTKLELK

binding result [2]: binds
B2: CUMAb design 6 of D44.1 formatted as scFv (scFv, V domains shown)
VH: EVQLVQSGAEVKKPGATVKISCKVSGYTFSTYWMEWVQQAPGKGLEWMGEVLPGSGSTYYAEKFQGRVTITADTSTDTAYMELSSLRSEDTAVYYCARGDGYFQHWGQGTLVTVSS
VL: EIVLTQSPDFQSVTPKEKVTITCRASQSISSNLHWYQQKPDQSPKLLIKYASQSFSGVPSRFSGSGSGTDFTLTINSLEAEDAATYYCHQSNSWPRTFGPGTKVDIK

Kd [3]: 42 nM and 44 nM
koff [3]: 0.16 s⁻¹
kon [3]: 3.9e+06 M⁻¹ s⁻¹
B3: hɑHEWL Fab (design 1 as a human IgG1 Fab) (Fab, V domains shown)
VH: EVQLVQSGAEVKKPGATVKISCKVSGYTFSTYWMEWVQQAPGKGLEWMGEVLPGSGSTYYAEKFQGRVTITADTSTDTAYMELSSLRSEDTAVYYCARGDGYFQHWGQGTLVTVSS
VL: DIQMTQSPSSLSASVGDRVTITCRASQSISSNLNWYQQKPGKAPKLLIYYASSLQSGVPSRFSGSGSGTDFTLTISSLQPEDFATYYCQQSNSWPRTFGPGTKVDIK
